# In IntAct's records for PubMed 20700104:
# B1: Caspase Dronc (Drosophila melanogaster (Fruit fly)), Q9XYF4 (parent)
# chain: MQPPELEIGMPKRHREHIRKNLNILVEWTNYERLAMECVQQGILTVQMLRNTQDLNGKPFNMDEKDVRVEQHRRLLLKITQRGPTAYNLLINALRNINCLDAAVLLESVDESDSRPPFISLNERRTSRKSADIVDTPSPEASEGPCVSKLRNEPLGALTPYVGVVDGPEVKKSKKIHGGDSAILGTYKMQSRFNRGVLLMVNIMDYPDQNRRRIGAEKDSKSLIHLFQELNFTIFPYGNVNQDQFFKLLTMVTSSSYVQNTECFVMVLMTHGNSVEGKEKVEFCDGSVVDMQKIKDHFQTAKCPYLVNKPKVLMFPFCRGDEYDLGHPKNQGNLMEPVYTAQEEKWPDTQTEGIPSPSTNVPSLADTLVCYANTPGYVTHRDLDTGSWYIQKFCQVMADHAHDTDLEDILKKTSEAVGNKRTKKGSMQTGAYDNLGFNKKLYFNPGFFNE
# partner: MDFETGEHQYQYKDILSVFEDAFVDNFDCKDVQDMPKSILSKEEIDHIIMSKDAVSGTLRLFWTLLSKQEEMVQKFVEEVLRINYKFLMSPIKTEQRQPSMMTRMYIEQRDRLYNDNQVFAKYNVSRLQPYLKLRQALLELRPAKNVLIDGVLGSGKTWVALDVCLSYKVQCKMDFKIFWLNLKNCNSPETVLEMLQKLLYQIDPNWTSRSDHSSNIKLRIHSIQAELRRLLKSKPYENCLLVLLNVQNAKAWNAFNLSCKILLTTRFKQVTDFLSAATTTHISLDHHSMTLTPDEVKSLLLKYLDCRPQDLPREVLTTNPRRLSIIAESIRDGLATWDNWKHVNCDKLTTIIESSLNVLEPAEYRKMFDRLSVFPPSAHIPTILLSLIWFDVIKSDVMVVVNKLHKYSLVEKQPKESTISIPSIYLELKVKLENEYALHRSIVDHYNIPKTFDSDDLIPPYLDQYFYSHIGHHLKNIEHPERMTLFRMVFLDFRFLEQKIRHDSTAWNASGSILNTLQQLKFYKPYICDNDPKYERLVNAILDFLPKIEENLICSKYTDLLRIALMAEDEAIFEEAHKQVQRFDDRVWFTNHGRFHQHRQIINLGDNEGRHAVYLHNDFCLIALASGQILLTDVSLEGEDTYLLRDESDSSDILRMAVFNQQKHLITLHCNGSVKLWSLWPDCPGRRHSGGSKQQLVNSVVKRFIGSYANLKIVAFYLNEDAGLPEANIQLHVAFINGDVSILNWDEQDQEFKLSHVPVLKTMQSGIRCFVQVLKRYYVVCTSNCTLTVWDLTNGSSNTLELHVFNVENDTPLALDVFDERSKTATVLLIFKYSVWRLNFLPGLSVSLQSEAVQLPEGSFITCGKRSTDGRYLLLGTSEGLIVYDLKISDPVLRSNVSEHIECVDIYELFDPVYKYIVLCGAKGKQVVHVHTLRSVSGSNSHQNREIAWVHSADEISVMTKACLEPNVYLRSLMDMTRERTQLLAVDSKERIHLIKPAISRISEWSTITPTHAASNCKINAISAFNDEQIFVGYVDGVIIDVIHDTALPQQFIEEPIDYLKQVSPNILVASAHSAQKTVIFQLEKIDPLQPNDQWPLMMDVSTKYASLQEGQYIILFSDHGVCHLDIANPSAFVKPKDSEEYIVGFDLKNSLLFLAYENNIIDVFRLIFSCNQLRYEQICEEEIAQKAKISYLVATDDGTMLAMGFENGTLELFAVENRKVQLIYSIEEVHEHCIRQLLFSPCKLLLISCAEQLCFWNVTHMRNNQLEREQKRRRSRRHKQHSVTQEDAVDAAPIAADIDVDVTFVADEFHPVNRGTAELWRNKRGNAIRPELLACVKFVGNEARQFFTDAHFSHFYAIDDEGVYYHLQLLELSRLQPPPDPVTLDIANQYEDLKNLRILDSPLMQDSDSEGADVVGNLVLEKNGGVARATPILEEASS
# B2: Caspase Dronc (Drosophila melanogaster (Fruit fly)), Q9XYF4 (parent)
# chain: B1 chain
# Variants of: B1
# Conditions: with apaf_drome Dark
row,Variant,effect of a mutation on the interaction
1,S130A,increasing interaction
2,C318A,increasing interaction

# Variants of: B2
# Conditions: with kcc2a_drome CaMKII
row,Variant,effect of a mutation on the interaction
1,S130A,disrupting interaction
